Test results published in patent publication US20240101959A1, “USE OF IL-2R-BETA-GAMMA AGONIST PEPTIDES IN CELL MANUFACTURING” (MEDIKINE, INC., priority 2022, published 2024).
Read-outs that look alike come from different tables or passages of the source.

T1: hu-IL-2Rγc subunit (human, UniProt P31785 23-262, limits assumed)
T1 sequence (looked up): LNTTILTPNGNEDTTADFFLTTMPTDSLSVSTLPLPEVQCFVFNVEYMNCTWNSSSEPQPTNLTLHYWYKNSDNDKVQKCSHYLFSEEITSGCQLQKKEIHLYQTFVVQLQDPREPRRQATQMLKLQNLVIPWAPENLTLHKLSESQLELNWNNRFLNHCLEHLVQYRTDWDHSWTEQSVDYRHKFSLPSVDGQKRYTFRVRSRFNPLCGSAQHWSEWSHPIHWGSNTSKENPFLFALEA

T2: hu-IL-2Rγc subunit (human), P31785
T2 chain: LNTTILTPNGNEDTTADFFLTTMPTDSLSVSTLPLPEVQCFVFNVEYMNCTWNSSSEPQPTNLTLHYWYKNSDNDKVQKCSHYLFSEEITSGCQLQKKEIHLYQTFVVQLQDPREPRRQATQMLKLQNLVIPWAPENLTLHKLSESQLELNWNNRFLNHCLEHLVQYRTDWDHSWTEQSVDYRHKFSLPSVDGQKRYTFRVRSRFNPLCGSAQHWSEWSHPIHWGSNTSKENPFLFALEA


Assays:
hu-IL-2Rγc subunit = biological target: T1, hu-IL-2Rγc subunit
[1] = biological target: T2, hu-IL-2Rγc subunit (human), P31785; test: phage ELISA competition assay
[2] = biological target: T2, hu-IL-2Rγc subunit (human), P31785

Row | Binder | IC50 (hu-IL-2Rγc subunit) [µM] | IC50 [1] [µM] | IC50 [2] [µM]
1 | GGDCSMWEGVELCWGG [SEQ ID NO 737] | < 100 |  | 
2 | DFERSYVVCQDWDGVELCWI (modifications not checked) [SEQ ID NO 648] |  | < 10 | < 100
3 | KSQVECQDWEGVELCWVVSE (modifications not checked) [SEQ ID NO 676] |  | < 10 | < 100
4 | RTEVECEDWEGVELCWL (modifications not checked) [SEQ ID NO 713] |  | < 10 | < 100
5 | VECEEWGGVELCWLADEVMW (modifications not checked) [SEQ ID NO 706] |  | < 10 | < 100
6 | IVCEEWRGVELCWL (modifications not checked) [SEQ ID NO 647] |  | < 10 | < 100
7 | GGVVCQDWEGVXLCWQGG (not fully specified; Abu at residue 12, as printed in the table) [SEQ ID NO 743] | < 100 |  | 
8 | PVEVRCQEWEGVELCWVVGI (modifications not checked) [SEQ ID NO 695] |  | < 10 | < 100
9 | RPQIECQEWQGVELCWTREE (modifications not checked) [SEQ ID NO 678] |  | < 10 | < 100
10 | GGRTEVECEDWEGVELCWLGG [SEQ ID NO 741] | < 100 |  | 
11 | RLGVECQEWEGVDLCWISAF (modifications not checked) [SEQ ID NO 691] |  | < 10 | < 100
12 | SAGRQEVVCQDWNGVELCWI (modifications not checked) [SEQ ID NO 654] |  | < 10 | < 100
13 | GQGREVVVCHDWYGVELCWQ (modifications not checked) [SEQ ID NO 655] |  | < 10 | < 100
14 | IMCQEWDGVELCWLERDKAN (modifications not checked) [SEQ ID NO 680] |  | < 10 | < 100
15 | INCQTWNGVELCWVDEGLYQ (modifications not checked) [SEQ ID NO 685] |  | < 10 | < 100
16 | KITVECQDWDGVELCWPTWI (modifications not checked) [SEQ ID NO 677] |  | < 10 | < 100
17 | AVCQDWYGVELCWCMQDILD (modifications not checked) [SEQ ID NO 705] |  | < 10 | < 100
18 | GLEIACEDWYGVELCWLRRA (modifications not checked) [SEQ ID NO 681] |  | < 10 | < 100
19 | KYIVECQEWGGVELCWPEMV (modifications not checked) [SEQ ID NO 697] |  | < 10 | < 100
20 | VVCQDWEGVELCWQ (modifications not checked) [SEQ ID NO 652] |  | < 10 | < 100

Row | Binder | IC50 (hu-IL-2Rγc subunit) [µM] | IC50 [1] [µM] | IC50 [2] [µM]
21 | TLGRTVVECQDWGGVELCWQ (modifications not checked) [SEQ ID NO 658] |  | < 10 | < 100
22 | GDRPKEVVCEDWKGVELCWI (modifications not checked) [SEQ ID NO 662] |  | < 10 | < 100
23 | RVQVECEDWNGVELCWPVRV (modifications not checked) [SEQ ID NO 687] |  | < 10 | < 100
24 | DRQVVCEEWDGVELCWIEES (modifications not checked) [SEQ ID NO 688] |  | < 10 | < 100
25 | RPEVVCQEWEGVELCWISPL (modifications not checked) [SEQ ID NO 690] |  | < 10 | < 100
26 | TDEVSCQEWEGVELCWIERQ (modifications not checked) [SEQ ID NO 694] |  | < 10 | < 100
27 | VVCQEWEGVELCWQTGPGAHA (modifications not checked) [SEQ ID NO 699] |  | < 10 | < 100
28 | DWRRSVVECQDWYGVELCWQ (modifications not checked) [SEQ ID NO 656] |  | < 10 | < 100
29 | ANQNTVVECQDWHGVELCWQ (modifications not checked) [SEQ ID NO 665] |  | < 10 | < 100
30 | SAPERWVECEDWQGVELCWV (modifications not checked) [SEQ ID NO 650] |  | < 10 | < 100
31 | IVCEDWRGVELCWI (modifications not checked) [SEQ ID NO 660] |  | < 10 | < 100
32 | LNRSVWIECEEYEGVELCWL (modifications not checked) [SEQ ID NO 671] |  | < 10 | < 100
33 | TAEVVCQEWDGVELCWIEVL (modifications not checked) [SEQ ID NO 703] |  | < 10 | < 100
34 | RWAVSCQDWQGIELCWPEWD (modifications not checked) [SEQ ID NO 710] |  | < 10 | < 100
35 | QLGVECQNWRGVELCWVSEI (modifications not checked) [SEQ ID NO 702] |  | < 10 | < 100
36 | EQQVVCQEWNGVELCWIEAG (modifications not checked) [SEQ ID NO 701] |  | < 10 | < 100
37 | GYGVLCQEWQGVELCWPVQREAGV (modifications not checked) [SEQ ID NO 682] |  | < 10 | < 100
38 | DVVCQNWEGVDLCWH (modifications not checked) [SEQ ID NO 653] |  | < 10 | < 100
39 | GPEVVCEEFNRVELCWVEYN (modifications not checked) [SEQ ID NO 696] |  | < 10 | < 100
40 | GNDDSYIVCEEWKGVELCWI (modifications not checked) [SEQ ID NO 669] |  | < 10 | < 100

Row | Binder | IC50 (hu-IL-2Rγc subunit) [µM] | IC50 [1] [µM] | IC50 [2] [µM]
41 | GGRTGVECQDWHGVELCWPVWEGG [SEQ ID NO 742] | < 100 |  | 
42 | DVVCQNWDGVDLCWH (modifications not checked) [SEQ ID NO 657] |  | < 10 | < 100
43 | GGVMCERWQGVELCWLGG [SEQ ID NO 738] | < 100 |  | 
44 | PYGVVCQDWAGVELCWVENR (modifications not checked) [SEQ ID NO 683] |  | < 10 | < 100
45 | SVEVVCEEWHGVELCWPVFI (modifications not checked) [SEQ ID NO 709] |  | < 10 | < 100
46 | PEGREVVVCRDWYGVELCWQ (modifications not checked) [SEQ ID NO 639] |  | < 10 | < 100
47 | TANQTVVECQVWGGVELCWQ (modifications not checked) [SEQ ID NO 644] |  | < 10 | < 100
48 | ERPRSFIECQEWEGVELCWL (modifications not checked) [SEQ ID NO 663] |  | < 10 | < 100
49 | TWNMSELECQDWNGVEICWH (modifications not checked) [SEQ ID NO 668] |  | < 10 | < 100
50 | IWGRTVVECQDWEGVELCWQ (modifications not checked) [SEQ ID NO 640] |  | < 10 | < 100
51 | VECQEWGGVELCWC (modifications not checked) [SEQ ID NO 645] |  | < 10 | < 100
52 | VSCQEWDGVELCWVDGDLAA (modifications not checked) [SEQ ID NO 679] |  | < 10 | < 100
53 | IECEEWRGVELCWQ (modifications not checked) [SEQ ID NO 638] |  | < 10 | < 100
54 | GGVGIECEEWAGVELCWLGG [SEQ ID NO 739] | < 100 |  | 
55 | GGTWNMSELECQDWNGVEICWHGG [SEQ ID NO 740] | < 100 |  | 
56 | IVCEEYNGVELCWVETSVKP (modifications not checked) [SEQ ID NO 700] |  | < 10 | < 100
57 | HSTVICQDWDGVELCWIEND (modifications not checked) [SEQ ID NO 707] |  | < 10 | < 100
58 | SPSIVCEEWAGVELCWVDYS (modifications not checked) [SEQ ID NO 704] |  | < 10 | < 100
